The values below come from patent publication US20140087995A1 (published 2014).

Numbered stars: 1 amine (or outer) side, 2 acyl side, 3 side chain; on linkers, the order of the positions; unused ones are H or OH. Bridge positions count the residues as written; N and C are the ends. Side chains are listed from the residue outwards. Ends that are not written are not given here. * marks the point of attachment. C20 diacid = O=C(O)CCCCCCCCCCCCCCCCCCC(=O)*; γGlu = O=C(O)[C@H](CCC(=O)[*:2])N[*:1]; AEEA = NCCOCCOCC(=O)O

T1: rat calcitonin receptor (rat, UniProt P32214 25-516)
T1 construct: whole, on cells; Cell membranes of transiently transfected BHK tk'ts 13 cells (Assay VIII); also called rCTR; rCT
T1 sequence (looked up): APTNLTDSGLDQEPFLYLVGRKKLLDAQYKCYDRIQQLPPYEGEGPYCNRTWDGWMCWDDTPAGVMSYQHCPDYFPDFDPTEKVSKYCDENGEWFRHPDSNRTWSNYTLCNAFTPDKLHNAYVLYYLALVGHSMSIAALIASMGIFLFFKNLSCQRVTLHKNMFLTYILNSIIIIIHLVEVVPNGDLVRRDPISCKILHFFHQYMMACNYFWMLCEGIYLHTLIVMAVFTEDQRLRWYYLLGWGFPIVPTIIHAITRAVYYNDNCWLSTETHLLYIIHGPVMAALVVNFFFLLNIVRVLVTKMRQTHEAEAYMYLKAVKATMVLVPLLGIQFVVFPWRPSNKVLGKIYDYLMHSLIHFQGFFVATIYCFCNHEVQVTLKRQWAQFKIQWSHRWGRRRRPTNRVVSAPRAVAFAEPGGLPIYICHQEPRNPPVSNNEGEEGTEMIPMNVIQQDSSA

T2: human calcitonin receptor (human, UniProt P30988 25-474)
T2 construct: whole, on cells; Cell membranes of a stably transfected BHK cell line (Assay VII); also called hCTR; hCT
T2 sequence (looked up): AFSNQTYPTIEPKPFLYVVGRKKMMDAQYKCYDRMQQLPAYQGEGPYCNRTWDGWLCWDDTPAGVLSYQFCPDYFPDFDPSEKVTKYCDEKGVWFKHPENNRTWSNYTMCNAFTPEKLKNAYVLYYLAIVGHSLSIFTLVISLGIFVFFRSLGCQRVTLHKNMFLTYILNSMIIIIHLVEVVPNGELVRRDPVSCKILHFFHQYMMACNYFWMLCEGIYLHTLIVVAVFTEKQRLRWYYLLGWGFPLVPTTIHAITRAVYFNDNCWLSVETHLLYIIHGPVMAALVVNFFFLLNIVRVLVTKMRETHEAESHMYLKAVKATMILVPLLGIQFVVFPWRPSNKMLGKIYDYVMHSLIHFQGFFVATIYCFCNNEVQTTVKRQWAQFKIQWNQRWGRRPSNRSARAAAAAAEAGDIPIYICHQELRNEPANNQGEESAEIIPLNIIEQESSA

T3: rat amylin receptor (rat calcitonin receptor + rat RAMP 3) (rat, UniProt P32214 25-516; Q9JJ73 23-147)
T3 construct: whole, on cells; Cell membranes of transiently transfected BHK tk'ts 13 cells (Assay VI); also called rAmylin-R; rat amylin 3(a) receptor
T3 sequence (looked up) 1: T1 sequence (looked up)
T3 sequence (looked up) 2: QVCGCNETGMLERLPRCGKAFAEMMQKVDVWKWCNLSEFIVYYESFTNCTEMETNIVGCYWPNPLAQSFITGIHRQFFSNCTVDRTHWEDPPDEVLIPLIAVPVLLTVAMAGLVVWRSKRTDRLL

B1: N^ε1-[2-[2-[2-[[(4S)-4-carboxy-4-(19-carboxynonadecanoylamino)butanoyl]amino]ethoxy]ethoxy]acetyl]-[Arg17,Pro21,Pro27]-h-amylin (peptide)
peptide: K([AEEA-γGlu-C20 diacid])CNTATCATQRLANFLRHSSPNFGAIPSSTNVGSNTY-NH2
modifications: disulfide 2-7; N-terminus assumed
SMILES: CC[C@H](C)[C@H](NC(=O)[C@H](C)NC(=O)CNC(=O)[C@H](Cc1ccccc1)NC(=O)[C@H](CC(N)=O)NC(=O)[C@@H]1CCCN1C(=O)[C@H](CO)NC(=O)[C@H](CO)NC(=O)[C@H](Cc1c[nH]cn1)NC(=O)[C@H](CCCNC(=N)N)NC(=O)[C@H](CC(C)C)NC(=O)[C@H](Cc1ccccc1)NC(=O)[C@H](CC(N)=O)NC(=O)[C@H](C)NC(=O)[C@H](CC(C)C)NC(=O)[C@H](CCCNC(=N)N)NC(=O)[C@H](CCC(N)=O)NC(=O)[C@@H](NC(=O)[C@H](C)NC(=O)[C@@H]1CSSC[C@H](NC(=O)[C@@H](N)CCCCNC(=O)COCCOCCNC(=O)CC[C@H](NC(=O)CCCCCCCCCCCCCCCCCCC(=O)O)C(=O)O)C(=O)N[C@@H](CC(N)=O)C(=O)N[C@@H]([C@@H](C)O)C(=O)N[C@@H](C)C(=O)N[C@@H]([C@@H](C)O)C(=O)N1)[C@@H](C)O)C(=O)N1CCC[C@H]1C(=O)N[C@@H](CO)C(=O)N[C@@H](CO)C(=O)N[C@H](C(=O)N[C@@H](CC(N)=O)C(=O)N[C@H](C(=O)NCC(=O)N[C@@H](CO)C(=O)N[C@@H](CC(N)=O)C(=O)N[C@H](C(=O)N[C@@H](Cc1ccc(O)cc1)C(N)=O)[C@@H](C)O)C(C)C)[C@@H](C)O
notes: Acylated analogue of human amylin; also called compound 41
B2: N^α1-[2-[2-[2-[[2-[2-[2-[[(4S)-4-carboxy-4-(19-carboxynonadecanoylamino)butanoyl]amino]ethoxy]ethoxy]acetyl]amino]ethoxy]ethoxy]acetyl]-[Arg17,Pro21,Pro27]-h-am … (peptide)
peptide: KCNTATCATQRLANFLRHSSPNFGAIPSSTNVGSNTY
modifications: C20 diacid-gGlu-2xOEG on alpha-amino of the N-terminal residue; Cys2-Cys7 disulfide; C-terminal amide (as human amylin)
notes: Acylated analogue of human amylin; also called compound 24
B3: N^ε1-[2-[2-[2-(19-carboxynonadecanoylamino)ethoxy]ethoxy]acetyl]-[Arg17,Pro21,Pro27]-h-amylin (peptide)
peptide: K([AEEA-C20 diacid])CNTATCATQRLANFLRHSSPNFGAIPSSTNVGSNTY-NH2
modifications: disulfide 2-7; N-terminus assumed
SMILES: CC[C@H](C)[C@H](NC(=O)[C@H](C)NC(=O)CNC(=O)[C@H](Cc1ccccc1)NC(=O)[C@H](CC(N)=O)NC(=O)[C@@H]1CCCN1C(=O)[C@H](CO)NC(=O)[C@H](CO)NC(=O)[C@H](Cc1c[nH]cn1)NC(=O)[C@H](CCCNC(=N)N)NC(=O)[C@H](CC(C)C)NC(=O)[C@H](Cc1ccccc1)NC(=O)[C@H](CC(N)=O)NC(=O)[C@H](C)NC(=O)[C@H](CC(C)C)NC(=O)[C@H](CCCNC(=N)N)NC(=O)[C@H](CCC(N)=O)NC(=O)[C@@H](NC(=O)[C@H](C)NC(=O)[C@@H]1CSSC[C@H](NC(=O)[C@@H](N)CCCCNC(=O)COCCOCCNC(=O)CCCCCCCCCCCCCCCCCCC(=O)O)C(=O)N[C@@H](CC(N)=O)C(=O)N[C@@H]([C@@H](C)O)C(=O)N[C@@H](C)C(=O)N[C@@H]([C@@H](C)O)C(=O)N1)[C@@H](C)O)C(=O)N1CCC[C@H]1C(=O)N[C@@H](CO)C(=O)N[C@@H](CO)C(=O)N[C@H](C(=O)N[C@@H](CC(N)=O)C(=O)N[C@H](C(=O)NCC(=O)N[C@@H](CO)C(=O)N[C@@H](CC(N)=O)C(=O)N[C@H](C(=O)N[C@@H](Cc1ccc(O)cc1)C(N)=O)[C@@H](C)O)C(C)C)[C@@H](C)O
notes: Acylated analogue of human amylin; also called compound 43
B4: N^α1-[(4S)-4-carboxy-4-(19-carboxynonadecanoylamino)butanoyl]-[Glu14,Arg17,Pro21,Pro25,Pro28,Pro29]-h-amylin (peptide)
peptide: {C20 diacid-γGlu}-KCNTATCATQRLAEFLRHSSPNFGPILPPTNVGSNTY-NH2
modifications: disulfide 2-7
SMILES: CC[C@H](C)[C@H](NC(=O)[C@@H]1CCCN1C(=O)CNC(=O)[C@H](Cc1ccccc1)NC(=O)[C@H](CC(N)=O)NC(=O)[C@@H]1CCCN1C(=O)[C@H](CO)NC(=O)[C@H](CO)NC(=O)[C@H](Cc1c[nH]cn1)NC(=O)[C@H](CCCNC(=N)N)NC(=O)[C@H](CC(C)C)NC(=O)[C@H](Cc1ccccc1)NC(=O)[C@H](CCC(=O)O)NC(=O)[C@H](C)NC(=O)[C@H](CC(C)C)NC(=O)[C@H](CCCNC(=N)N)NC(=O)[C@H](CCC(N)=O)NC(=O)[C@@H](NC(=O)[C@H](C)NC(=O)[C@@H]1CSSC[C@H](NC(=O)[C@H](CCCCN)NC(=O)CC[C@H](NC(=O)CCCCCCCCCCCCCCCCCCC(=O)O)C(=O)O)C(=O)N[C@@H](CC(N)=O)C(=O)N[C@@H]([C@@H](C)O)C(=O)N[C@@H](C)C(=O)N[C@@H]([C@@H](C)O)C(=O)N1)[C@@H](C)O)C(=O)N[C@@H](CC(C)C)C(=O)N1CCC[C@H]1C(=O)N1CCC[C@H]1C(=O)N[C@H](C(=O)N[C@@H](CC(N)=O)C(=O)N[C@H](C(=O)NCC(=O)N[C@@H](CO)C(=O)N[C@@H](CC(N)=O)C(=O)N[C@H](C(=O)N[C@@H](Cc1ccc(O)cc1)C(N)=O)[C@@H](C)O)C(C)C)[C@@H](C)O
notes: Acylated analogue of human amylin; also called compound 6
B5: N^-1-[(4S)-4-carboxy-4-(19-carboxynonadecanoylamino)butanoyl]-Gly[Arg1,Arg17,Pro21,Pro27,His35]-h-amylin (peptide)
peptide: {C20 diacid-γGlu}-GRCNTATCATQRLANFLRHSSPNFGAIPSSTNVGSHTY-NH2
modifications: disulfide 3-8
SMILES: CC[C@H](C)[C@H](NC(=O)[C@H](C)NC(=O)CNC(=O)[C@H](Cc1ccccc1)NC(=O)[C@H](CC(N)=O)NC(=O)[C@@H]1CCCN1C(=O)[C@H](CO)NC(=O)[C@H](CO)NC(=O)[C@H](Cc1c[nH]cn1)NC(=O)[C@H](CCCNC(=N)N)NC(=O)[C@H](CC(C)C)NC(=O)[C@H](Cc1ccccc1)NC(=O)[C@H](CC(N)=O)NC(=O)[C@H](C)NC(=O)[C@H](CC(C)C)NC(=O)[C@H](CCCNC(=N)N)NC(=O)[C@H](CCC(N)=O)NC(=O)[C@@H](NC(=O)[C@H](C)NC(=O)[C@@H]1CSSC[C@H](NC(=O)[C@H](CCCNC(=N)N)NC(=O)CNC(=O)CC[C@H](NC(=O)CCCCCCCCCCCCCCCCCCC(=O)O)C(=O)O)C(=O)N[C@@H](CC(N)=O)C(=O)N[C@@H]([C@@H](C)O)C(=O)N[C@@H](C)C(=O)N[C@@H]([C@@H](C)O)C(=O)N1)[C@@H](C)O)C(=O)N1CCC[C@H]1C(=O)N[C@@H](CO)C(=O)N[C@@H](CO)C(=O)N[C@H](C(=O)N[C@@H](CC(N)=O)C(=O)N[C@H](C(=O)NCC(=O)N[C@@H](CO)C(=O)N[C@@H](Cc1c[nH]cn1)C(=O)N[C@H](C(=O)N[C@@H](Cc1ccc(O)cc1)C(N)=O)[C@@H](C)O)C(C)C)[C@@H](C)O
notes: Acylated analogue of human amylin, extended by one residue at the N-terminus; also called compound 47

The first assay addresses T1, rat calcitonin receptor. Briefly: SPA competition vs 125I-calcitonin, membranes with rat CTR (Assay VIII).
On to B1, for which the IC50 – broadly, the point on the concentration scale where inhibition reaches its midpoint – worked out at 74.1 nM.
The same measure, in the same setting: in the case of B2 it was 350 nM; in that of B3, 7.6 nM; in that of B4, 51.5 nM.
In the case of B5, the half-maximal inhibitory concentration (IC50) was 17.1 nM.

For a further assay, the target named is T2, human calcitonin receptor. Briefly: ratio IC50 human calcitonin receptor / IC50 human amylin receptor. Summed up:
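Competition binding by SPA with cell membranes (35 ng/μL) and SPA beads in 50 mM Hepes pH 7.4 with 1 mM CaCl2, 5 mM MgCl2, 0.1% OA and 0.02% Tween20. Incubated 120 min at 25 °C with shaking, then counted.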
As to B1, the “Ratio hCT/hAmylin binding” value is 49.9.
Take B2: the “Ratio hCT/hAmylin binding” value stood at 90.
The same measure, in the same setting: as for B3, the figure is 34.7; as for B4, 20.
The same measure, in the same setting: as for B5, the figure is 44.9.

The target of another assay is T3, rat amylin receptor (rat calcitonin …). The assay can be described thus: SPA competition vs 125I-rat amylin, membranes with rat CTR + rat RAMP3 (Assay VI).
For the molecule B1, the IC50 is 1.37 nM.
On to B2, for which the IC50 was found to be 3.01 nM.
As to B3, the half-inhibitory concentration (IC50) was determined as 0.11 nM.
Still for that read-out and setting: in the case of B4 it was 2.37 nM; in that of B5, 0.203 nM.

A further assay has as its target T1, rat calcitonin receptor. Briefly: ratio IC50 rat calcitonin receptor / IC50 rat amylin receptor.
For B1, the “Ratio rCT/rAmylin binding” value was 54.
Consider B2, for which the “Ratio rCT/rAmylin binding” value was determined as 116.
On the same count and under the same terms, in the case of B3 it was 69.1; in that of B4, 21.7; in that of B5, 84.3.
